Source: patent US20220195497A1 (ROCHE DIAGNOSTICS OPERATIONS, published 2022)

T1: hTK (UniProt P04183 1-234)
T1 sequence (looked up): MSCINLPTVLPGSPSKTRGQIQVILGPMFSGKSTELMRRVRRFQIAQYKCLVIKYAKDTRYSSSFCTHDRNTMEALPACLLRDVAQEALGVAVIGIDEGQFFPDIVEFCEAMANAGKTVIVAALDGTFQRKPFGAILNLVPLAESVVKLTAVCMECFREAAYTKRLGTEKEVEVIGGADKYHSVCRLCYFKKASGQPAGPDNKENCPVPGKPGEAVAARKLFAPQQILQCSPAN

B1: 23C11-IgG (antibody, V domains shown)
VH: CQSLEESGGRLVTPGTPLTLTCTASGFSLSNYYMSWVRQAPGKGLEWIGIIYGDDNTYCANWTKGRFTISKTSTTVDLTITSPTTEDTATYFCARGPDYIAAKMDIWGPGTLVTVSL
VL: DVVMTQTPASVEAAVGGTVTIKCQASQSISGYLSWYQQKPGQRPKLLIYRASTLESGVPSRFKGSGSGTEFTLTISDLECADAATYYCQCTYGSSTFSSYGNAFGGGTEVVVK
B2: 6C6-IgG (antibody, V domains shown)
VH: QEQLEESGGDLVKPEGSLTLTCTASRFSFSSSYWICWVRQAPGKGLEWIACIYAGDSGSSYYASWAKGRFTVSKTSSTTVTLQTTSLTAADTATYFCARASVGAAYDYFALWGPGTLVTVSS
VL: ALVMTQTPASVEAAMGGTVTIKCQASEDVSSHLAWYQQRPGQPPKLLIYGASDLASGVPSRFTGSGSGTQFTLAISDLECADAATYYCQGYYYISDSPYVFGGGTEVVVK
B3: 4H4-IgG (antibody, V domains shown)
VH: CQSLEESGGGLVQPEGSLTLTCTASGFSFSSGYDMCWVRQTPGKGLEWIACISVDSDGVTYYASWAKGRFTISKTSSTTVTLQMTSLTAADTATYFCARGYESSSGVYIPYFTLWGPGTLVTVSS
VL: DIVLTQTPASVEAAVGGTVTIKCQASQSIYSYLAWYQHKPGQPPKLLIYKASTLASGVPSRFKGSGSGTEYTLTISDLECADAATYYCQHYYYSSTSGGGVFGGGTEVVVK

Tests used:
[1] = target: T1, hTK; assay: SPR sandwich matrix on hTK; row = primary antibody; secondary antibody (competitor): 4H4-IgG
[2] = target: T1, hTK; assay: SPR sandwich matrix on hTK; row = primary antibody; secondary antibody (competitor): 6C6-IgG
[3] = target: T1, hTK; assay: SPR sandwich matrix on hTK; row = primary antibody; secondary antibody (competitor): 23C11-IgG
[4] = target: T1, hTK; assay: SPR sandwich matrix on hTK; row = primary antibody; secondary antibody (competitor): Antibody A

Row | Binder | Molar Ratio Epitope Accessibility (MREA) [1] | Molar Ratio Epitope Accessibility (MREA) [2] | Molar Ratio Epitope Accessibility (MREA) [3] | Molar Ratio Epitope Accessibility (MREA) [4]
1 | B1 | 0 | 0 | 0 | 0.2
2 | B2 | 0 | 0 | 0 | 0.4
3 | B3 | 0 | 0 | 0 | 0.2
